The values below are quoted from earlier work in PMC10046553.

Usually Kd stands for the constant that tells how readily two partners part at equilibrium.

This data set deals with CD71 (transferrin receptor 1) (Homo sapiens) (UniProt P02786).
CD71 (transferrin receptor 1) (Homo sapiens), sequence (P02786 89-760): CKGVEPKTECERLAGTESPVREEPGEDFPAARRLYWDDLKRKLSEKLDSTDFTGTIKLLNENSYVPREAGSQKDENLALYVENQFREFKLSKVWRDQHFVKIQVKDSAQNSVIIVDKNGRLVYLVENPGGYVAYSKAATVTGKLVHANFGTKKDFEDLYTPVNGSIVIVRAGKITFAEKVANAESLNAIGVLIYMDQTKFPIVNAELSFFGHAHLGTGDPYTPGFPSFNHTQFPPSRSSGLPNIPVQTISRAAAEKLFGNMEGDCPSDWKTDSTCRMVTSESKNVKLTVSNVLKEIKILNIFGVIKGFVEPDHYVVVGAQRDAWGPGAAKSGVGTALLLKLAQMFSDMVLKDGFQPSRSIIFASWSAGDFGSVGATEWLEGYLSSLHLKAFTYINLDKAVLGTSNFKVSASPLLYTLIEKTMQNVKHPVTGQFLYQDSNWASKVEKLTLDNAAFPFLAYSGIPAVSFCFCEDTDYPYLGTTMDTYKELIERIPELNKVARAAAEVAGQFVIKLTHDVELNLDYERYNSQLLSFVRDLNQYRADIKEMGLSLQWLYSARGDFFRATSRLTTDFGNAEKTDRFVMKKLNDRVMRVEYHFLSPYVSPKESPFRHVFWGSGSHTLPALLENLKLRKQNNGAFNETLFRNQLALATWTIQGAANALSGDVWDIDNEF

As for “Human serum albumin (from UniProt P02768)”, the equilibrium dissociation constant (Kd) is 0.75 µM.
